Where only a bound is given, the exact number is not on record here.

For one assay, the system named is mGluR5-SIC. In kind it is cell-based, mouse.
Another assay deals with mGluR5. As to the kind of experiment: mGluR5 phosphorylation in cultured striatal neurons. To be noted: primary striatal cultures. In kind it is cell-based.
A further assay relates to Pin1-mGluR5 binding. Description: Co-immunoprecipitation of Pin1 and mGluR5 in HEK293T cells. In kind it is cell-based. To be noted: no other Homer.

B1: BDNF: TrkB receptor ligand (protein, UniProt P21237 19-249, looked up)
Neurotrophic factor BDNF …: APMKEVNVHGQGNLAYPGVRTHGTLESVNGPRAGSRGLTTTSLADTFEHVIEELLDEDQKVRPNEENHKDADLYTSRVMLSSQVPLEPPLLFLLEEYKNYLDAANMSMRVRRHSDPARRGELSVCDSISEWVTAADKKTAVDMSGGTVTVLEKVPVSKGQLKQYFYETKCNPMGYTKEGCRGIDKRHWNSQCRTTQSYVRALTMDSKKRIGWRFIRIDTSCVCTLTIKRGR
For B1, in the assay on mGluR5-SIC (BDNF 10 ng/ml, 10 min, WT neurons, n = 14, 40-min monitoring), the “mGluR5-SIC amplitude or duration, WT neurons” value is listed as “did not alter the amplitude or duration”. In the assay with mGluR5-SIC (BDNF 10 ng/ml, 10 min, after KCl pretreatment, n = 6, p < 0.05), the “mGluR5-SIC potentiation, WT neurons pretreated with KCl” value is reported as ~ 1.5 fold. In addition, in the assay with mGluR5-SIC (BDNF 10 ng/ml, 10 min, Grm5AA/AA n = 8, or Homer1a-expressing n = 8), the “mGluR5-SIC potentiation, Grm5AA/AA neurons” value is “not potentiated”. In addition, the “mGluR5-SIC potentiation, Homer1aW24A mutant or GFP expressing WT neurons” value with mGluR5-SIC (BDNF 10 ng/ml, 10 min, Homer1aW24A n = 6, GFP n = 5) is on record as “absent”. For the same molecule, the “mGluR5-SIC potentiation, Homer1c expressing Homer1−/− neurons” value in the assay with mGluR5-SIC (BDNF 10 ng/ml, 10 min, Homer1c viral transgene, n = 8) is recorded as “blocked BDNF potentiation”. Also, the “mGluR5-SIC potentiation, Homer1-deficient neurons” value with mGluR5-SIC (BDNF 10 ng/ml, 10 min, Homer1−/−Homer2−/−Homer3−/− (n = 14) or Homer1−/− (n = 11) neurons, charge transfer versus baseline, p < 0.001) is given as over 2 fold. Moreover, the “mGluR5-SIC potentiation, Pin1−/− neurons” value in the assay with mGluR5-SIC (BDNF 10 ng/ml, 10 min, Pin1−/− (n = 6) or Homer1a-expressing Pin1−/− (n = 4)) is on record as “not potentiated”. In the assay with mGluR5-SIC (BDNF 10 ng/ml, 10 min, n = 6, p < 0.001), the “mGluR5-SIC potentiation, Homer1a expressing WT neurons” value was “potentiated”. The “mGluR5-SIC potentiation, Grm5R/R neurons” value with mGluR5-SIC (BDNF 10 ng/ml, 10 min, n = 7, p < 0.001, no KCl pretreatment or Homer1a expression needed) was “potentiated”. In addition, the “mGluR5-SIC potentiation, Homer1a−/− neurons pretreated with KCl” value in the assay with mGluR5-SIC (BDNF after KCl pretreatment, n = 3) is given as “not in Homer1a^−/− pre-treated with KCl”. For the same molecule, the “mGluR5 phosphorylation in striatal cultures” value in the assay with mGluR5 was “increases mGluR5 phosphorylation”.

B2: Homer1c: constitutively expressed cross-linking Homer protein (protein)
chain: MGEQPIFSTRAHVFQIDPNTKKNWVPTSKHAVTVSYFYDSTRNVYRIISLDGSKAIINSTITPNMTFTKTSQKFGQWADSRANTVYGLGFSSEHHLSKFAEKFQEFKEAARLAKEKSQEKMELTSTPSQESAGGDLQSPLTPESINGTDDERTPDVTQNSEPRAEPAQNALPFSHSAGDRTQGLSHASSAISKHWEAELATLKGNNAKLTAALLESTANVKQWKQQLAAYQEEAERLHKRVTELECVSSQANAVHSHKTELSQTVQELEETLKVKEEEIERLKQEIDNARELQEQRDSLTQKLQEVEIRNKDLEGQLSELEQRLEKSQSEQDAFRSNLKTLLEILDGKIFELTELRDNLAKLLECS
modifications: left off: tag not named ('Tagged transgenes'), end not stated, state not stated
Turning to B2, in the assay on Pin1-mGluR5 binding, the “effect of co-expression on Pin1-mGluR5 binding” value is given as “reduced Pin1-mGluR5 binding”.
